Tests used:
[1] = target: H2A/H2B dimer (UniProt P06897;P02281); assay: ITC
[2] = target: H3/H4 tetramer (UniProt P84233;P62799); assay: ITC

B1: AtFKBP53 NTD (residues 1–112) (domain or fragment)
chain: MGFWGLEVKPGKPQAYNPKNEQGKIHVTQATLGTGLSKEKSVIQCSIGDKAPIALCSLLPNKIECCPLNLEFDDDDEPVEFTVTGDRSIHLSGFLEYYQDDEDDYEHDEDDS
- stoichiometry N [1]: 1
- stoichiometry N [2]: 1
